Source: patent US12723255B2, “Herbicide tolerance genes and methods of use thereof” (priority 2014, dated 2026)
Several values for one entry are separate records, joined by “and”; a condition that tells them apart may be missing. Identical values can stand only once. Like-named read-outs stand apart in the source and are kept apart here.

How the values were obtained:
[1] = kinetic analysis, non-endpoint assay at 23° C.; format: biochemical; settings: for Vmax Quizalofop / Km / Vmax 2,4-D / Km 2,4-D: standard error in parenthetical
Outline: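 Purified C-terminal 6-His-tagged recombinant enzymes expressed in bacteria; quizalofop-P or 2,4-D as substrate. Vmax reported as specific activity (umol herbicide product mg enzyme-1 min-1) and Km as mM herbicide substrate, with standard error.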

F1 hybrid maize plants [2] = assay: efficacy field trial for 2,4-D tolerance; format: in vivo; settings: scale 0 to 100, with CTP unless label says no CTP; for average injury rating, V4 Growth Stage, 8x 2,4-D / average injury rating, V8 Growth Stage, 8x 2,4-D: 8 lb ae/acre at VE-V2, V4, V8; for average injury rating, V4 Growth Stage, 16x 2,4-D / average injury rating, V8 Growth Stage, 16x 2,4-D: 16 lb ae/acre at VE-V2, V4, V8
Experimental: (§1) Separate trait efficacy field trials for quizalofop-P and 2,4-D were conducted at two locations cach with F1 hybrid transgenic plants produced by crossing an inbred plant containing maize event MON89034 with an R1 plant containing MON-HT55 (with a CTP), MON-HTI (with or without a CTP), MON-HT2 (with or without a CTP), MON-HT3 (with a CTP), MON-HT4 (with a CTP), MON-HT5 (with a CTP), MON-HT6 (with a CTP), or MON-HT7 (with a CTP). Transgenic F1 hybrid plants containing maize events NK603×MON89034 were used for comparison as a control.
In the efficacy field trial for 2,4-D tolerance, one of four herbicide treatments was used: (1) 2,4-D amine at 2 lb ac/acre (2×) plus 0.25% v/v non-ionic surfactant (NIS) applied to VE to V2 followed by V4 followed by V8; (2) 2,4-D amine at 4 lb ac/acre (4×) plus 0.25% v/v NIS applied to VE to V2 followed by V4 followed by V8; (3) 2,4-D amine at 8 lb ac/acre (8×) plus 0.25% v/v NIS applied to VE to V2 followed by V4 followed by V8 maize; or (4) 2,4-D amine at 16 lb ac/acre (16×) plus 0.25% v/v NIS applied to VE to V2 followed by V4 followed by V8. Plots were visually rated as above. Tables 14 and 15 show the average injury ratings after herbicide application at V4 or V8 growth stage, respectively.

F1 hybrid maize plants [3] = assay: efficacy field trial for quizalofop-P tolerance and clethodim sensitivity; format: in vivo; settings: scale 0 to 100; for average injury rating, V8 Growth Stage, 1x Clethodim: clethodim 0.25 lb ai/acre at V8, volunteer control
Experimental: as §1
In the efficacy field trial for quizalofop-P tolerance and clethodim sensitivity, one of four herbicide treatments was used: (1) quizalofop-P (Assure II) at 0.32 lb ai/acre (4×) plus 0.25% v/v non-ionic surfactant (NIS) applied at VE-V2 growth stage followed by the same at V4 growth stage followed by the same at V8 growth stage; (2) quizalofop-P at 0.64 lb ai/acre (8×) plus 0.25% v/v NIS applied at VE to V2 growth stage followed by the same at V4 growth stage followed by the same at V8 growth stage; (3) quizalofop-P at 1.28 lb ai/acre (16×) plus 0.25% v/v NIS applied at VE to V2 growth stage followed by the same at V4 growth stage followed by the same at V8growth stage; or (4) clethodim at 0.25 lb ai/acre (1×) plus 0.25% v/v NIS applied at V8 growth stage. Plots were visually rated 10-14 days after application for crop injury on a scale of 0 to 100with “0” being none and “100” being complete crop destruction. Tables 14 and 15 show the average injury ratings after herbicide application at V4 or V8 growth stage, respectively.

[4] = enzyme activity assay at 23° C. with purified enzyme; format: biochemical; settings: for maximum activity as a percentage of the wild-type enzyme's activity, Haloxyfop: purified enzyme; for maximum activity as a percentage of the wild-type enzyme's activity, Haloxyfop / maximum activity as a percentage of the wild-type enzyme's activity, Fluazifop / maximum activity as a percentage of the wild-type enzyme's activity, Dichlorprop / maximum activity as a percentage of the wild-type enzyme's activity, Fenoxaprop: wild-type set at 100%; for maximum activities for all four substrates compared with the wild-type enzyme: haloxyfop, fenoxaprop, fluazifop and dichlorprop
Experimental: The enzyme activity of MON-HT protein variants with haloxyfop, fenoxaprop, fluazifop, and dichlorprop as substrates was determined using the enzyme activity assay conducted at 23° C. with purified enzyme. The activity was recorded as the maximum activity as a percentage of the wild-type enzyme's activity, which was set at 100%.

[5] = 23° C., purified His-tagged protein
[6] = 23° C., purified His-tagged protein, read-out: Km Quizalofop
[7] = NDB = activity not robust enough for kinetic characterization
[8] = NDB = activity not robust enough for kinetic characterization, read-out: Km 2,4-D
[9] = 0.32 lb ai/acre at VE-V2, V4, V8, with CTP unless label says no CTP
[10] = 0.64 lb ai/acre at VE-V2, V4, V8, with CTP unless label says no CTP
[11] = 1.28 lb ai/acre at VE-V2, V4, V8, with CTP unless label says no CTP

Molecule	Vmax Quizalofop [1, 5]	Km [1, 6] [µM]	Vmax 2,4-D [1, 7]	Km [1, 8] [µM]	average injury rating, V8 Growth Stage, 2x 2,4-D (F1 hybrid maize plants [2]; 2 lb ae/acre at VE-V2, V4, V8)	average injury rating, V4 Growth Stage, 4x 2,4-D (F1 hybrid maize plants [2]; 4 lb ae/acre at VE-V2, V4, V8)	average injury rating, V4 Growth Stage, 8x 2,4-D (F1 hybrid maize plants [2])	average injury rating, V8 Growth Stage, 8x 2,4-D (F1 hybrid maize plants [2])	average injury rating, V4 Growth Stage, 16x 2,4-D (F1 hybrid maize plants [2])	average injury rating, V8 Growth Stage, 16x 2,4-D (F1 hybrid maize plants [2])	average injury rating, V8 Growth Stage, 1x Clethodim (F1 hybrid maize plants [3])	maximum activity as a percentage of the wild-type enzyme's activity, Haloxyfop [4] [%]	maximum activity as a percentage of the wild-type enzyme's activity, Fluazifop [4] [%]	maximum activities for all four substrates compared with the wild-type enzyme [4]	maximum activity as a percentage of the wild-type enzyme's activity, Dichlorprop [4] [%]	maximum activity as a percentage of the wild-type enzyme's activity, Fenoxaprop [4] [%]	Km 2,4-D [1, 7]	further results
MON-HT7: engineered oxygenase protein, amino acid sequence SEQ ID NO:34 (protein) MHAALTPLTNKYRFIDVQPLTGVLGAEITGVDLREPLDDSTWNEILDAFHTYQVIYFPGQAITNEQHIAFSRRFGPVDPVPLLKSIEGYPEVQMIRREANESGRVIGDDWHADSTFLDAPPAAVVMRAIEVPEYGGDTGFLSMYSAWETLSPTMQATIEGLNVVHSATKVFGSLYQATNWRFSNTSVKVMDVDAGDRETVHPLVVTHPVTGRRALYCNQVYCQKIQGMTDAESKSLLQFLYEHATKFDFTCRVRWKKDQVLVWDNLCTMHRSVPDYAGKFRYLTRTTVAGDKPSR	1.94 (−0.12) umol herbicide product mg enzyme-1 min-1	330	0.04 (−0.01) umol herbicide product mg enzyme-1 min-1	60	2.0	1.3	5.8	9.3	12.5	20.0	93.3							Vmax for 2,4-D relative to the wild-type enzyme [1]: about half; Vmax with quizalofop-P greater than the wild-type enzyme ([1]; 23° C.): approximately 40%; average injury rating, V4 Growth Stage, 2x 2,4-D (F1 hybrid maize plants [2]; 2 lb ae/acre at VE-V2, V4, V8): 1.3; average injury rating, V8 Growth Stage, 4x 2,4-D (F1 hybrid maize plants [2]; 4 lb ae/acre at VE-V2, V4, V8): 2.8; average injury rating, V4 Growth Stage, 4x Quizalofop (F1 hybrid maize plants [3]; [9]): 0.8; average injury rating, V8 Growth Stage, 4x Quizalofop (F1 hybrid maize plants [3]; [9]): 1.5; average injury rating, V4 Growth Stage, 8x Quizalofop (F1 hybrid maize plants [3]; [10]): 1.3; average injury rating, V8 Growth Stage, 8x Quizalofop (F1 hybrid maize plants [3]; [10]): 0.8; average injury rating, V4 Growth Stage, 16x Quizalofop (F1 hybrid maize plants [3]; [11]): 3.3; average injury rating, V8 Growth Stage, 16x Quizalofop (F1 hybrid maize plants [3]; [11]): 5.5
MON-HT8: engineered oxygenase protein, amino acid sequence SEQ ID NO:37 (protein) MHAALTPLTNKYRFIDVQPLTGVLGAEITGVDLREPLDDSTWNEILDAFHTYQVIYFPGQAITNEQHIAFSRRFGPVDPVPILKSIEGYPEVQMIRREANESGRVIGDDWHTDSTFLDAPPAAVVMRAIEVPEYGGDTGFLSMYSAWETLSPTMQATIEGLNVVHSATKVFGSLYQATNWRFSNTSVKVMDVDAGDRETVHPLVVTHPVTGRRALYCNQVYCQKIQGMTDAESKSLLQFLYEHATKFDFTCRVRWKKDQVLVWDNLCTMHRSVPDYGNAFRYLTRTTVAGDKPSR	0.46 (−0.02) umol herbicide product mg enzyme-1 min-1	110	0.11 (−0.01) umol herbicide product mg enzyme-1 min-1	140								99	50					
MON-HT55: engineered oxygenase protein, amino acid sequence SEQ ID NO:11 (protein) MHAALSPLSQRFERIAVQPLTGVLGAEITGVDLREPLDDSTWNEILDAFHTYQVIYFPGQAITNEQHIAFSRRFGPVDPVPLLKSIEGYPEVQMIRREANESGRVIGENWHTDSTFLDAPPAAVVMYAKEIPPYGGDTLFTSMYTAWETLSPTMQATIEGLNVVHSATRVFGSLYQAQNRRFSNTSVKVMDVDAGDRETVHPLVVTHPETGRKGLYVNQVYCQRIEGMSEKESEPLLSFLFAHATKPEFTCRVRWQEGDVLVWDNLCTQHYAVPDYAGKFRYLTRTTVGGVRPAR	0.44 (−0.04) umol herbicide product mg enzyme-1 min-1	320	0.03 (−0.02) umol herbicide product mg enzyme-1 min-1	690	15.0 and 12.5 and 16.3 and 14.4 and 11.3	31.3 and 22.5 and 41.3 and 23.1 and 30.0	45.0 and 53.8 and 43.8 and 50.0 and 58.8 and 48.8	33.8 and 36.3 and 39.4 and 30.0 and 35.0	61.3 and 63.8 and 66.3 and 55.0 and 53.8 and 52.5	57.5 and 52.5 and 55.0 and 56.9 and 47.5	94.5 and 93.3	58	38	lower than, or equal to	31	34		
MON-HT9: engineered oxygenase protein, amino acid sequence SEQ ID NO:40 (protein) MHAALTPLTNKYRFIDVQPLTGVLGAEITGVDLREPLDDSTWNEILDAFHTYQVIYFPAQQITNEQHISFSRRFGPVDPVPLLKSIEGYPEVQMIRREANESGRILGDDWHTDSTFLDAPPAAVVMRAIEVPEYGGDTGFLSMYSAWDTLSDTMKATIEGLNVVHSATRVFGSLYQAQNWRFSNTSVKVMDVDAGDRETVHPLVVSHPVTGRRALYCNQVYCQRIEGMTDAESKCLLQFLYEHATKFDFTCRVRWKKDQVLVWDNLCTMHRAVPDYAGKFRYLTRTTVAGDRPAR	0.53 (−0.02) umol herbicide product mg enzyme-1 min-1	100	NDB									91	41	lower than, or equal to	19	67	NDB	
MON-HT10: engineered oxygenase protein, amino acid sequence SEQ ID NO:43 (protein) MHAALTPLTNKYRFIDVQPLCGVLGAEITGVDLREPLDDSTWNEILDAFHTYQVIYFPGQAITNEQHIAFSRRFGPVDPVPLLKSIEGYPEVQMIRREANESGRILGDDWHTDSTFLDAPPAAVVMRAIEVPEYGGDTGFLSMYSAWDTLSDTMKATIEGLNVVHSATRVFGSLYQAQNWRFSNTSVKVMDVDAGDRETVHPLVVSHPVTGRRALYCNQVYCQRIEGMTDAESKCLLQFLYEHATKFDFTCRVRWKKDQVLVWDNLCTMHLAVPDYDGKFRYLTRTTVAGDKPSR	0.78 (−0.05) umol herbicide product mg enzyme-1 min-1	130	NDB										48		29		NDB	
